{"source": "the Human Domainome abundance scans (Beltran et al. 2025)", "experiment": "abundance fitness (aPCA) (normalised: wild type 0, dead -1); higher = more abundant; growth selection in yeast, the domain comes from the species named", "conditions": "Homo sapiens", "note": "± gives the uncertainty stated by the source.", "data": [{"substance": "E3 ubiquitin-protein ligase NEDD4-like Y211V, Q96PU5", "values": [{"measurement": "abundance fitness", "value": "-0.736 ± 0.06"}]}, {"substance": "E3 ubiquitin-protein ligase NEDD4-like Y211W, Q96PU5", "values": [{"measurement": "abundance fitness", "value": "-0.244 ± 0.078"}]}]}
